# According to patent publication US20100322941A1 (published 2010):
# T1: recombinant human IP-10 (human, UniProt P02778 22-98)
# T1 construct: mature; also called hIP-10; rhIP-10
# T1 sequence (looked up): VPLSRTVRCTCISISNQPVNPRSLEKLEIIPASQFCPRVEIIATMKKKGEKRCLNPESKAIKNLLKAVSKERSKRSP
# How the values were obtained:
# [1] = biological target: T1, recombinant human IP-10; assay: cell-based or functional assay
# [2] = biological target: T1, recombinant human IP-10; assay: SPR (Biacore 2000); the text's value differs from Table 8 (9.2 × 10^-9 M)
# Experimental: 200RU (response unit) of a goat anti-human polyclonal IgG (ahIgG; Biacore AB, Uppsala, Sweden) were immobilized by EDC/NHS chemistry on a C1 Biacore chip. […] The surface was regenerated after each cycle by injection of 10 mM glycine pH=1.5 at 30 μL/min, for 30 s followed by 1 min. of stabilization time in HBS-EP buffer.
# Binding was measured by passing either hIP-10 (Peprotech, Rocky Hill N.J.) or a NusA-hIP-10 fusion protein at the following concentrations: 34.7 nM, 11.6 nM, 3.85 nM, 1.28 nM, 0.428 nM, 0.142 nM and OnM. All solutions were diluted in HBS-EP buffer (Biacore AB, Uppsala, Sweden). Injection was performed at 50 μl/min for 3 min. followed by 12 min. of dissociation time and the temperature was set at 25° C. […] Very similar values were obtained using rhIP-10 or the NusA-hIP-10 fusion, but better response signals were obtained with the fusion protein due to its larger size that induces a better response on the Biacore.
Binder,"Calcium flux IC50 (nM); hCXCR3-expressing L1.2 cells, 10 nM hIP-10 [1] [nM]","Chemotaxis IC50 (nM); hCXCR3-expressing L1.2 cells, 2 nM hIP-10 [1] [nM]","Chemotaxis IC50 (nM); hCXCR3-expressing L1.2 cells, 1 nM hIP-10 [1] [nM]",Kd [2] [nM]
"CC21R3P1_F1 (scFv format) (scFv, part only; not given: linker, domain order, vector tags, V domains shown, not shown: another chain or arm of the molecule; small tags and cut ends) VH: QVQLVESGGGVVQPGRSHTLSCAASGFAFKNSGIHWVRQAPGKGLEWVAVISYDGSNKFYADSVKGRFTISRDNSQNTVYLQMTDLRPDDTAVYYCARDGSESEYLDYWGKGTLVTVSS VL: NFMLTQPHSVSESPGKTVTISCTGSGGSIDRNYVQWYQQRPGSAPITVIYEDNQRPSGVPDRFSGSIDSSSNSASLTISGLRTDDEADYYCQSYDSINLWVFGGGTKVTVL",36,18,–,–
"CC21R3P1_F1 (IgG1 format) (antibody, V domains shown) VH: QVQLVESGGGVVQPGRSHTLSCAASGFAFKNSGIHWVRQAPGKGLEWVAVISYDGSNKFYADSVKGRFTISRDNSQNTVYLQMTDLRPDDTAVYYCARDGSESEYLDYWGKGTLVTVSS VL: NFMLTQPHSVSESPGKTVTISCTGSGGSIDRNYVQWYQQRPGSAPITVIYEDNQRPSGVPDRFSGSIDSSSNSASLTISGLRTDDEADYYCQSYDSINLWVFGGGTKVTVL",–,–,–,90.2

# Now from value to binder:
"Calcium flux IC50 (nM); hCXCR3-expressing L1.2 cells, 10 nM hIP-10 [1] [nM]","Chemotaxis IC50 (nM); hCXCR3-expressing L1.2 cells, 2 nM hIP-10 [1] [nM]","Chemotaxis IC50 (nM); hCXCR3-expressing L1.2 cells, 1 nM hIP-10 [1] [nM]",Kd [2] [nM],Binder
14,–,1.8,–,"CF1A11R3P3_F3 (scFv format) (scFv, part only; not given: linker, domain order, vector tags, V domains shown, not shown: another chain or arm of the molecule; small tags and cut ends) VH: QVQLVESGGGVVQPGRSLRLSCAASGFTFSNSGIHWVRQAPGKGLEWVAVISYDGSNKFYADSVKGRFTISRDNSKNTLYLQMNSLRAEDTAVYYCAKLRDNGEYLDYWGQGTLVTVSS VL: NFMLTQPHSVSESPGKTVTISCTGSGGSIDRNYVQWYQQRPGSAPITVIYEDNQRPSGVPDRFSGSIDSSSNSASLTISGLRTDDEADYYCQSYDSINLWVFGGGTKVTVL"
89,–,90,–,"CC21R3P5_C5 (scFv format) (scFv, part only; not given: linker and tags, part only) scFv, part: QVQLVQSGGGVVQPGRSLRLSCAASGFTFSTYGMHWVRQAPGKGLEWVAVISYDGGTKYYADSVKGRFTISRDNSMKTLYLQMNSLRTEDTAVYYCAKDLGDLPPGLDYWGRGTMVTVSSCHEMICALLYSYNTHESIZEDSYELTQPPSVSVALGQTATITCGGSSIESKSVHWYQEKPGQAPVLVIYKDSNRPSVIPERFSGSNSGNTATLTIGRAQAGDEADYYCQVWDSSTGVVFGGGTKLTVL"
